Experimental data as given in article doi:10.1101/2024.10.31.621230 (bioRxiv, 2024).

Target: the molecule itself
Experiment: native gel or EMSA; EMM assembly assay: 35S-labelled in vitro translated substrate incubated with EMM at 30°C for 15, 45 or 90 min, EMM solubilised with 1.5% DDM, BN-PAGE, radio-imaging; homotrimer at approximately 160 kDa

Protein | stoichiometry N
LamB (natural protein, UniProt P02943 1-446, looked up, 35S-methionine, LamB, the 18-stranded outer membrane protein used as a model substrate; Gunasinghe et al., 2018; Thewasano et al., 2023) for the substrate constructs; also called trimeric-LamB; source: in vitro translated in rabbit reticulocyte lysate with 35S-methionine, assembled into EMM) MMITLRKLPLAVAVAAGVMSAQAMAVDFHGYARSGIGWTGSGGEQQCFQTTGAQSKYRLGNECETYAELKLGQEVWKEGDKSFYFDTNVAYSVAQQNDWEATDPAFREANVQGKNLIEWLPGSTIWAGKRFYQRHDVHMIDFYYWDISGPGAGLENIDVGFGKLSLAATRSSEAGGSSSFASNNIYDYTNETANDVFDVRLAQMEINPGGTLELGVDYGRANLRDNYRLVDGASKDGWLFTAEHTQSVLKGFNKFVVQYATDSMTSQGKGLSQGSGVAFDNEKFAYNINNNGHMLRILDHGAISMGDNWDMMYVGMYQDINWDNDNGTKWWTVGIRPMYKWTPIMSTVMEIGYDNVESQRTGDKNNQYKITLAQQWQAGDSIWSRPAIRVFATYAKWDEKWGYDYTGNADNNANFGKAVPADFNGGSFGRGDSDEWTFGAQMEIWW | 3
OmpF (natural protein, UniProt P02931 1-362, looked up, 35S-methionine, OmpF, the 16-stranded outer membrane protein used as a model substrate; Gunasinghe et al., 2018; Thewasano et al., 2023) for the substrate constructs; source: in vitro translated in rabbit reticulocyte lysate with 35S-methionine, assembled into EMM) MMKRNILAVIVPALLVAGTANAAEIYNKDGNKVDLYGKAVGLHYFSKGNGENSYGGNGDMTYARLGFKGETQINSDLTGYGQWEYNFQGNNSEGADAQTGNKTRLAFAGLKYADVGSFDYGRNYGVVYDALGYTDMLPEFGGDTAYSDDFFVGRVGGVATYRNSNFFGLVDGLNFAVQYLGKNERDTARRSNGDGVGGSISYEYEGFGIVGAYGAADRTNLQEAQPLGNGKKAEQWATGLKYDANNIYLAANYGETRNATPITNKFTNTSGFANKTQDVLLVAQYQFDFGLRPSIAYTKSKAKDVEGIGDVDLVNYFEVGATYYFNKNMSTYVDYIINQIDSDNKLGVGSDDTVAVGIVYQF | 3
